For this series the following is noted: Aspergillus oryzae (strain ATCC 42149 / RIB 40), 25 °C, GdnHCl, Absorbance, Unknown, KCl 0.1 M, reversible: yes, whole UniProt chain shown.

From FireProtDB (doi:10.1042/bj2870481) come the findings set out here.

B1: Guanyl-specific ribonuclease T1 wild type, P00651 (protein)
chain: MMYSKLLTLTTLLLPTALALPSLVERACDYTCGSNCYSSSDVSTAQAAGYQLHEDGETVGSNSYPHKYNNYEGFDFSVSSPYYEWPILSSGDVYSGGSPGADRVVFNENNQLAGVITHTGASGNNFVECT
Consider B1, for which the denaturant m value is 2.03 kcal/mol/M (pH 1.3), 2.91 kcal/mol/M (pH 3) and 2.93 kcal/mol/M (pH 7). Further, the “denaturant midpoint (higher = more stable)” value by setting is: (pH 1.3) 0.93 M; (pH 3) 1.94 M; (pH 7) 2.97 M. Besides, the unfolding free energy stood at 1.9 kcal/mol (pH 1.3), 5.66 kcal/mol (pH 3) and 8.74 kcal/mol (pH 7).
